Test results from patent US20170298375, “CONTROL OF CELLULOSE BIOSYNTHESIS BY OVEREXPRESSION OF A TRANSCRIPTION FACTOR” (Board of Trustees of Michigan State University, published 2017).

B1: ProCesA4wt (dsDNA)
DNA 1: TCACTCACAGTTTGGTACAACCTCA
DNA 2: TGAGGTTGTACCAAACTGTGAGTGA
B2: ProCesA7wt (dsDNA)
DNA 1: CAGAAAATTCACCTAATTAAGGACA
DNA 2: TGTCCTTAATTAGGTGAATTTTCTG
B3: ProCesA8wt (dsDNA)
DNA 1: CTTATAGAAAGTTGGTGATTGAAAA
DNA 2: TTTTCAATCACCAACTTTCTATAAG

How the values were obtained:
[1] = target: GST (UniProt P08515 P08515:1-218); assay: EMSA; GST alone control; conditions: tags: GST alone control; label: 32P
Sequence of GST (P08515 whole entry, the tested form may be a part, one chain of several): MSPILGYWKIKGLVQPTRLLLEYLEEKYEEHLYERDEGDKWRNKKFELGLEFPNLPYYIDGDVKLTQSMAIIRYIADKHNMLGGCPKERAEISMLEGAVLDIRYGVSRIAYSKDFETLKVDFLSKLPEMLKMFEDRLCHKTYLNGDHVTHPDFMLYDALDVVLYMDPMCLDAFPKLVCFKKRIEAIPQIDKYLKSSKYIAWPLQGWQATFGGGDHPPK
Method: (§1) A GST-MYB46 fusion protein was first incubated with the wild type, double-stranded ³²P-labeled oligodeoxynucleotides with the wild type CESA4, CESA7 and CESA8 promoter sequences shown in FIG. 3A. The GST protein was used as control protein. Unlabeled competitor promoter oligonucleotides were then added the assays to generate the assay mixtures identified FIG. 3B, where the competitors were oligonucleotides with wild type and mutated CESA4, CESA7 and CESA8 promoter sequences shown in FIG. 3A. […] To generate the results shown FIG. 3B, each assay mixture was then subjected to an electrophoretic mobility shift assay (EMSA) by polyacrylamide gel electrophoresis (PAGE). […] The promoter regions used for the DNA probes in each experiment are indicated below the gel images. Competition for the protein-DNA binding was performed using 60× unlabeled probes. The free unbound DNA probes are indicated by the arrow.
(§2) DNA fragments for EMSA were obtained by PCR-amplification and labeled with [γ-³²P]ATP using T4 polynucleotide kinase (NEB). The end-labeled probes were purified with Microspin S-200 HR column (GE Healthcare). The labeled DNA fragments were incubated for 25 min with 50 ng of GST-MYB46 in a binding buffer [10 mM. Tris (pH 7.5), 50 mM KCl, 1 mM DTT, 2.5% glycerol, 5 mM MgCl₂, 100 μg/ml BSA, and 50 ng/μL poly(dI-dC)].

[2] = target: T1, GST-MYB46 (Arabidopsis thaliana, UniProt Q9LXV2 SEQ:1-280); assay: EMSA; labelled fragment stated as -248 to -69 in text; 5 mM MgCl2, 50 mM KCl, pH 7.5; conditions: tags: GST fusion, E. coli Rosetta gami; label: 32P
T1 sequence (Q9LXV2 whole entry, the tested form may be a part): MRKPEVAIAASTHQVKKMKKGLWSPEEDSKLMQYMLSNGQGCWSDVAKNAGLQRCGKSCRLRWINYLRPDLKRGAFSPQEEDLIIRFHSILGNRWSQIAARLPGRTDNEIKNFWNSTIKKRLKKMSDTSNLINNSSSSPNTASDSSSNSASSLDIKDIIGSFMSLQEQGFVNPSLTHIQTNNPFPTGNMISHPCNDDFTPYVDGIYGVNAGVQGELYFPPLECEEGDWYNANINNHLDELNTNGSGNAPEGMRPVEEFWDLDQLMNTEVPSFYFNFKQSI
Method: as §1, §2

[3] = target: T1, GST-MYB46; assay: EMSA; labelled fragment stated as -662 to -486 in text; conditions: tags: GST fusion, E. coli Rosetta gami; label: 32P
Method: as §1, §2

[4] = target: T1, GST-MYB46; assay: EMSA; labelled fragment stated as -525 to -358 in text; conditions: tags: GST fusion, E. coli Rosetta gami; label: 32P
Method: as §1, §2

Row | Binder | binding result [1] | binding result [2] | binding result [3] | binding result [4]
1 | B1 | no binding | binds | – | –
2 | B2 | no binding | – | binds | –
3 | B3 | no binding | – | – | binds
